B1: TPR t1 (parent)
chain: GACCAAUCUGCCCUCAGAGCUCGAGAACAUCUUCGGAUGCAGAGGAGGCAGGCUUCGGUGGCGCGAUAGCGCCAACGUCCUCAACCUCCAAUGCAUCCCACCACAUGAUGAUGCCUGAAGAGCCUUGGUUUUUUG

Variants of: B1
Experiment: polymerase ribozyme fitness, log enrichment relative to wild type (log ratio); higher = more active; in vitro selection for triplet polymerase activity
In short: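 Each subunit of a heterodimeric triplet polymerase ribozyme was mutagenized into a library by PCR, transcribed, and subjected to one round of in vitro selection, run in triplicate. Libraries were annealed with a biotinylated primer, the partner subunit and triplets, incubated frozen at −7 °C, and extended constructs were gel-excised, captured on streptavidin beads and recovered by RT-PCR. Input and output libraries were sequenced on Illumina, keeping genotypes with ≥10 input reads and ≥1 read per output. Fitness is log base 2 of genotype enrichment divided by wild-type enrichment, from inverse-variance-weighted replicate averages.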

In order of falling “polymerase ribozyme fitness (log ratio)” value:
1. A121G U131A  2.42
2. C123U U132A  2.23
3. A121U C123A C124G  2.17
4. A121U  2.12
5. G120C G127U  2.11
6. A121U C124A  2.1
7. G120A U132A  1.97
8. A121G U132A  1.94
9. G120A C124U  1.89
10. A121G  1.88
11. G122A C124G  1.86
12. C123G  1.8
13. U116G A119G  1.79
14. C124A  1.78
15. A121C  1.74
16. G122U C124A  1.69
17. C124A U131G  1.63
18. A119U G120C  1.55
19. C123A U132A  1.54
20. C115G A119G  1.52
21. C123U G135C  1.48
22. G120C G135C  1.48
23. A121G U131G  1.36
24. C123U U134C  1.29
25. A119U C124A  1.28
26. A121U G135U  1.28
27. G120A U125A  1.26
28. A119G U132A  1.24
29. G120A C123G  1.22
30. A121U U129G  1.22
31. A119G  1.12
32. A121C U131G  1.12
33. C123U U125G  1.08
34. C123U  1.07
35. C115A C123G  1.01
36. G122U C124U  0.953
37. G120C C123A  0.937
38. A119G U131A  0.889
39. C123U U126A G135U  0.771
40. G120U G122U  0.765
41. A121C U130A  0.644
42. C123A  0.556
43. A121C G128U  0.545
44. C115U G120C C123A  0.543
45. G120C C123G  0.469
46. G120A G135U  0.435
47. G120C U130G  0.395
48. U116C G120U  0.377
49. C115A U125G  0.221
50. C123A U125C  0.193
51. G120A G127U  0.172
52. G120U U133A  0.165
53. C115A U133A  0.127
54. A121G U129C  0.0991
55. G120A U125A U126A G128A  0.067
56. A118U C123A U130C  -0.0514
57. G120A U129A  -0.0881
58. G117A C124U  -0.187
59. C124A U133G  -0.27
60. C115A G122U U132C  -0.273
61. A118G G135C  -0.273
62. A118G G120C  -0.275
63. G120U U130A  -0.3
64. A119U  -0.349
65. C123U G128C  -0.354
66. G120A U126C  -0.356
67. C123U G135U  -0.4
68. C123G G128C  -0.446
69. A118U U130G  -0.458
70. C114U U133G  -0.517
71. C115A G135U  -0.547
72. A119U G120U  -0.548
73. C115U U125A  -0.551
74. C124A G128A  -0.565
75. G120A G122C  -0.571
76. G122A U130C  -0.597
77. G120A G128U  -0.62
78. U116G A121G  -0.679
79. G120A G127A  -0.68
80. U116G G120C  -0.715
81. G120C G128U  -0.74
82. G120U U130G  -0.763
83. G120U U129C  -0.774
84. G122A U129C  -0.808
85. U116C G135A  -0.82
86. G120C G122A  -0.824
87. C115A A118G  -0.852
88. G122U C124G  -0.864
89. U116G A121C  -0.876
90. C115G U133G  -0.9
91. C115A A119G  -0.948
92. G120A A121C  -0.98
93. G117A U133G  -0.981
94. G122A U130G  -1.01
95. G120A G127A U129C  -1.04
96. C114U U132A  -1.1
97. A119U G135U  -1.1
98. C115G C124U  -1.13
99. C115U C124U  -1.17
100. G120U G135U  -1.2
101. A119C C123G  -1.25
102. C115U G122U  -1.31
103. G117U G120A U132A  -1.33
104. A118G G122A U129A  -1.35
105. G117A G135C  -1.41
106. C123A U125C U129G  -1.5
107. G117A U131G  -1.55
108. G117U C123G  -1.56
109. U116A C123U  -1.63
110. G117A U125G  -1.64
111. G117A G127C  -1.7
112. U116G G117A  -1.82
113. C115A A118U U131A  -1.85
114. G117A C123G  -1.9
115. C115U G135U  -1.91
116. G117A G135U  -1.92
117. G120A G122A G128C  -2.03
118. G117A U129C  -2.05
119. C115U G120A U131A  -2.07
120. U116G U130C  -2.14
121. C115U A118C  -2.16
122. G117U C123A  -2.17
123. U116C G117C  -2.2
124. G117U U133C  -2.23
125. G122A U126A  -2.34
126. U116G U125A  -2.37
127. A119C C124A  -2.4
128. G117U A121C  -2.4
129. A119C C124G  -2.41
130. A119U G128C  -2.46
131. G122A G128U G135U  -2.49
132. U116G G120C U129A  -2.49
133. U116G G120U  -2.52
134. G120C G127A U134C  -2.55
135. G117U A118U  -2.66
136. U116A U130C  -2.68
137. C114U U130A  -2.7
138. C115A U116A  -2.84
139. G117C U130C  -2.84
140. C115G G135U  -2.97
141. G117C A118G  -3.04
142. C115G G117A G135A  -3.04
143. G117C A118C  -3.06
144. C115U G127A  -3.15
145. C115U G128C  -3.16
146. G117A U129A  -3.39
147. C115U G117C  -3.48
148. U116G U126C  -3.51
149. G117C C124U  -3.55
150. C114U G127U  -3.69
151. U116C A121G U129C  -3.73
152. U116A U133C  -3.8
153. G117C U133G  -3.89
154. G117C G120A  -3.91
155. G117C U133A  -4.07
156. G117A G127A  -4.19
157. G117C C124A G127U  -4.29
158. U116G U129G  -4.36
159. A119C  -4.38
160. G117C C123U  -4.89
161. G117C U125A G135C  -4.9
162. G117C U130A  -5.1
163. U116G C123U G128A  -5.61
164. C115G G117C  -5.84
165. G117C C123U U126A  -5.9
166. G117U U126G  -5.92
167. G117C U129G  -6.14

From the RNAGym collection of RNA variant scans (doi:10.1073/pnas.2313332121)
